In patent US8337848:

Target: amyloid precursor protein (APP), full length (106 kDa), from MOG-G-UVW cell lysate (human) (UniProt P05067)
Assay: competition sandwich ELISA on APP from MOG cell lysate; competitor: APP DuoSet detection antibody; irrelevant IgG at 20 µg/ml

UniProt P05067, sequence (P05067 18-770): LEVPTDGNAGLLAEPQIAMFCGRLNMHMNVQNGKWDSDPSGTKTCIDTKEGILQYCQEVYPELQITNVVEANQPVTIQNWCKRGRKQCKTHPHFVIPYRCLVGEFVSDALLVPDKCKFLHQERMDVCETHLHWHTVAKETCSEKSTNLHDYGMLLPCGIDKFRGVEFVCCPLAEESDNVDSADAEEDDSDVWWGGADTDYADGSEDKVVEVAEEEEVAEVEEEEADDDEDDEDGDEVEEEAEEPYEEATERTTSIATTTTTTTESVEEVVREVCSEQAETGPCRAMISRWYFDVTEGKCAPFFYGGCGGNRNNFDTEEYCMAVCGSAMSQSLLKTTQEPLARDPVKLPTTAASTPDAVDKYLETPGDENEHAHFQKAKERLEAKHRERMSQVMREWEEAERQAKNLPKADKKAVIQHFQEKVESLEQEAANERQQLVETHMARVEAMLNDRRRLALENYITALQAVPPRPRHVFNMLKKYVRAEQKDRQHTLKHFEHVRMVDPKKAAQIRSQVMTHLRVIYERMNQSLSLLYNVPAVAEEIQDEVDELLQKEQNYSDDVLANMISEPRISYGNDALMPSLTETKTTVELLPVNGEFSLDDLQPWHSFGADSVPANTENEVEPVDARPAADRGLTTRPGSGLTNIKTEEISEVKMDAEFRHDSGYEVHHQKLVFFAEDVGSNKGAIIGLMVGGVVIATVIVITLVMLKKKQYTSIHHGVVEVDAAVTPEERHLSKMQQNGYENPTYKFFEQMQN

% reduction of the binding of the second commercial antibody: 3.3%
Substance: irrelevant mouse IgG antibody (Perbio Science)
